The record followed here is patent US20240293316.

Series [1] deals with T1, NPD (micellar nanoparticles of PPAD, DEX-containing PPA with D-MMP peptide) (not fully specified).
T1 chain: GPLGLAGGERDG

In series [2] the target is T2, NPL (micellar nanoparticles of PPAL, DEX-containing PPA with L-MMP peptide) (not fully specified).
T2 chain: GPLGLAGGERDG

Series [3] addresses T3, NPR (micellar nanoparticles of PPAR, DEX-containing PPA with random peptide) (not fully specified).
T3 chain: GGSGSGSGWGERDGS

B1: thermolysin (protein)
chain: ITGTSTVGVGRGVLGDQKNINTTYSTYYYLQDNTRGNGIFTYDAKYRTTLPGSLWADADNQFFASYDAPAVDAHYYAGVTYDYYKNVHNRLSYDGNNAAIRSSVHYSQGYNNAFWNGSQMVYGDGDGQTFIPLSGGIDVVAHELTHAVTDYTAGLIYQNESGAINEAISDIFGTLVEFYANKNPDWEIGEDVYTPGISGDSLRSMSDPAKYGDPDHYSKRYTGTQDNGGVHINSGIINKAAYLISQGGTHYGVSVVGIGRDKLGKIFYRALTQYLTPTSNFSQLRAAAVQSATDLYGSTSQEVASVKQAFDAVGVK
For the protein B1, the figures for the “nanoparticle cleavage experiment (TEM after thermolysin treatment, 1 µM thermolysin : 100 µM polymer, 24 hours at 37° C.)” value in series [1], in series [2] and in series [3] were “maintained their nanoparticle morphology”, “underwent cleavage induced aggregation” and “maintained their nanoparticle morphology”, respectively.
